Assay: yeast display, Sf9 membrane polyspecificity reagent, FACS + sequencing; frameworks hold sequencing errors
In short: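 Polyreactivity labels are assigned by the sorting gate from which each nanobody was recovered. The gates were low and high (top ~1%), set on anti-HA fluorescence for expression and streptavidin fluorescence for reagent binding. Before sorting, galactose-induced (36–48 hours) yeast display cells were stained for 1 hour at 4 °C with 10% biotinylated, detergent-solubilized Sf9 membrane reagent.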

| Sequence | polyreactivity (PSR sort gate) |
| --- | --- |
| QVQLVESGGGLVQAGGSLRLSCAASGSIFTPYAMGWYRQAPGKERELVADIDASGGGTYADSVKGRFTISRDNAKNTVYLQMNSLKPEDTAVYYCNTDPYSSAWYNYDYWGQGTQVTVSS | low polyreactivity |
| QVQLVESGGGLVQAGGSLRLSCAASGSIFTPYVKGWYRQAPGKERELVAAISKRGTRTYYSDSVKGRFTISRDNAKNTVYLQMNSLKPEDTAVYYCNAAVDYGSEHDYWGQGTQVTVSS | high polyreactivity |
| QVQLVESGGGLVQAGGSLRLSCAASGSIFTRNAMGWYRQAPGKERELVADISRRGVSTYYADSVKGRFTISRDNAKNTVYLQMNSLKPEDTAVYYCNKLSSYVVARRTTEYDYWGQGTQVTVSS | high polyreactivity |
| QVQLVESGGGLVQAGGSLRLSCAASGSIFTRNAMGWYRQAPGKERELVATIRKNGASTTYADSVKGRFTISRDNAKNTVYLQMNSLKPEDTAVSYCARDHHTKYNYWGQGTQVTVSS | low polyreactivity |
| QVQLVESGGGLVQAGGSLRLSCAASGSIFTRNTMGWYRQAPGKERELVAAINRSGGRTYYADSVKGRFTISRDNAKNSVYLTMNSLKPEDTAVYYCAAYTQGSRYDYWGQGTQVTVSS | high polyreactivity |
| QVQLVESGGGLVQAGGSLRLSCAASGSIFTRYAMAGYRQAPGKERELVAAISWIGTRTYYADSVKGRFTISRDNAKNTVYLPMNSLKPEETAVYYCNAVSKVERYSYPHGRPFEYWGQGTQVTVSS | high polyreactivity |
| QVQLVESGGGLVQAGGSLRLSCAASGSIFTRYAMGWYRQAPGKEREFVAAISRRGGRTYYADSVKGRFTISRDNAKNTVYLQMNSLKPEDTAVYYCAASEPPGYYIALFDYWGQGTQVTVSS | high polyreactivity |
| QVQLVESGGGLVQAGGSLRLSCAASGSIFTRYTMGWYSQAPGKERELVAVISDSSGRTYYADSVKGRFTISRDNAKNTVYLQMNSLKPEDTAVYYCAAEYSDIYEYWGQGTQVTVSS | low polyreactivity |
| QVQLVESGGGLVQAGGSLRLSCAASGSIFTRYVMGWYRQAPGKERELVAAISGRGSSTYYADSVKGRFTISRDNAKNTVYLQMNSLKPEDTAVYYCAADRVRRPSPGGMDYWGQGTQVTVSS | high polyreactivity |
| QVQLVESGGGLVQAGGSLRLSCAASGSIFTSNAMGWYRQAPGKERELVAAISRRGSNTFYADSVKGRFTISRDNAKNTVYLQMNSLKPEDTAVYYCNTLVNAISYEYYYWGQGTQVNVSS | high polyreactivity |
| QVQLVESGGGLVQAGGSLRLSCAASGSIFTSNAMGWYRQAPGKERELVAAISYISGGTYYADSVKGRFTISRDNAKNTVYLQMNSLKPEDTAVYYCAAEQKWGSGQYDQGSYWYYYWGQGTQVTVSS | low polyreactivity |
| QVQLVESGGGLVQAGGSLRLSCAASGSIFTSNAMGWYRQAPGKERELVAAITSSSSTNYADSVKGRFTISRDNAKNTVYLQMNSLKPEDTAVYYCAKQGNNIPWYRPYGDYYYWGQGTLVTVSS | low polyreactivity |
| QVQLVESGGGLVQAGGSLRLSCAASGSIFTSNDMGWYRQAPGKERELVAAITNSGGSTYYADSVKGRFTISGDNAKNTVYLQMNSLKPEDTEVYYCAAEISILPFVTPDTIYGYWGQGTQVTVSS | low polyreactivity |
| QVQLVESGGGLVQAGGSLRLSCAASGSIFTSYAMGWYIPAPGKERELVASISGSGGSTYYADSVKGRFTISRDYSMNTVYLQMNRLKPEVTEVYVCANRCYNGWLRRYYYWGQGTNVTVSS | high polyreactivity |
| QVQLVESGGGLVQAGGSLRLSCAASGSIFTSYAMGWYRQAPGKERELVAAISRRGSRTYYADSVKGRFTISRDNANNTVYLQMNSLKPEETAVYDCAAKSGGQPGDSWGQGTQVTVSS | high polyreactivity |
| QVQLVESGGGLVQAGGSLRLSCAASGSIFTSYAMGWYRQAPGKERELVAAITSTGGSTYYADSVKGRFTISRDPAKNTVYLLMNSLKPEDTAVYYCNADGGTPYDYWGQGTQVTVSS | low polyreactivity |
| QVQLVESGGGLVQAGGSLRLSCAASGSIFTSYTMGWYSQAPGKERELVAAIDSGGDSTYYADSVKGRFTISRDNAKNTVYLQMNSLKPEDTAVYYCAAEPQYWWQDYRYNYWGQGTQVTVSS | high polyreactivity |
| QVQLVESGGGLVQAGGSLRLSCAASGSIFTTNAMGWYRQAPEKERELVATITWSDGSTYYADSVKGRFTISRDNAKNTVYLQMNSLKPEDTAVYYCATPYKRYFYKGGDYWGQGTQVSVSS | low polyreactivity |
| QVQLVESGGGLVQAGGSLRLSCAASGSIFTTYTMASYRQAPGKERELVAAISSSGVRTYYADSVKGRFTISRDNAKNTVYLQMNSLKPEDTAVYYCAARVGKYAEHRYNYWGQGTQVTVSS | high polyreactivity |
| QVQLVESGGGLVQAGGSLRLSCAASGSIFTTYTMGWYRQAPGKERELVAAITTSSGSTYYADSVKGRFTISRDNAKNTVYLQMNSLKPEDTAVYSCNATYSAAVDYWGQGTQVTVSS | low polyreactivity |
| QVQLVESGGGLVQAGGSLRLSCAASGSIFTVNAMGWYRQAPGKERELVARISWSGGSTYYADSVKGRFTISRDNAKNTVYLQMNSLKPEDTAVYYCAKGFYEGVPSYGYDYWGQGTQVTVSS | low polyreactivity |
| QVQLVESGGGLVQAGGSLRLSCAASGSIFTVYVIGGYRQAPGKEREFVAAITYSGGRTDYADSVKGRFTISRDNAKNTVYLQMNSLKPEDTAVYYCAKVRDVLWRFNYWGQGTQVTVSS | high polyreactivity |

| Sequence | polyreactivity (PSR sort gate) |
| --- | --- |
| QVQLVESGGGLVQAGGSLRLSCAASGSIFTWYAMGWYRLAPGIDRELVAAITRGGSTYADSVTGRFTISRDNAKNTVYLQMNSLKPEDTAVYYCNAVYGVYDFNYWGQGTQVTVSS | low polyreactivity |
| QVQLVESGGGLVQAGGSLRLSCAASGSIFTWYAMGWYRQAPGKERELVAAITRGGSTYADSVKGRFTISRDNAKNTVYLQMNSLKPEDSAVYYCNAVYGVYDFTYWGPGTQVTVSS | low polyreactivity |
| QVQLVESGGGLVQAGGSLRLSCAASGSIFTWYAMGWYRQAPGKETELVARINVSAGITYYADSVKGRFTISRDNAKNTVYLQMNSLKPEDTAVYYCAAEDFTRQFEYWGQGTQVTVSS | low polyreactivity |
| QVQLVESGGGLVQAGGSLRLSCAASGSIFTYNAMGWYRKAPGKERELVAVISWSGGSTYYADSVKGRFTISRDNAKNTVYLQMNSLKPEDTAVYYCNSDYYRPYGNKYGYWGQGTQVTVSS | high polyreactivity |
| QVQLVESGGGLVQAGGSLRLSCAASGSIFTYNAMGWYRQAPGKERELVASISSGGITNYADSVKGRFTISRDNAKNTVYLQMNSLKPEDTAVYYCATEYLYVDFFIRYDYWGQGTQVTVSS | low polyreactivity |
| QVQLVESGGGLVQAGGSLRLSCAASGSIFTYNTMGWYRPAPGKERELVAAISSGGRTYYADSVKGRFTISRDNAKNTVYLQMTSLKPEDTAVYYCAARYYFWGQGTQVTVSS | high polyreactivity |
| QVQLVESGGGLVQAGGSLRLSCAASGSIFTYYAIGWYRQAPWKERELVAAISWSDGNTYYADSVKGRFTISRDNAKNTVYLQMNSLKPEDSAVYYCAAEYYVSRYWYPYDFYIMNYWGQGTQVTVSS | high polyreactivity |
| QVQLVESGGGLVQAGGSLRLSCAASGSIFTYYAMGWYRQAPGKEREFVAAISRRGGSTYYADSVKGRFTISRDNAKNTVYLQMNSLKPEDTAVYYCAATYPYRGFYGIRSQFDYWGQGTQVTVSS | high polyreactivity |
| QVQLVESGGGLVQAGGSLRLSCAASGSIFTYYAMGWYRQAPGKERELVAAISLDGGSTYYADSVKGRFTISRDNAKNTVYLQMNSLKPEDTAVYYCAAYPTYPDEYWGQGTQVTVSS | low polyreactivity |
| QVQLVESGGGLVQAGGSLRLSCAASGSIFTYYAMGWYRQAPGKERELVAAITRRGGSTYYADSVKGRFTISRDNAKNTVYLQMNSLKPEDTAVYYCNAFTYWASYWDYDYWGQGTQVTVSS | low polyreactivity |
| QVQLVESGGGLVQAGGSLRLSCAASGSIFTYYAMGWYRQAPGKERELVAGISGGGRTNYADSVKGRFTISRDNAKNTVYLQMNSLKPEDTAVFYCAADWSFSTIRYWRFDSDYWGQGTQVTVSS | high polyreactivity |
| QVQLVESGGGLVQAGGSLRLSCAASGSIFTYYAMGWYRQAPGKERELVASINWSGGRTYYADSVKGRFTISRDNAKNTVYLQMNSLKPEDTAVYYCNARSAYGTGNQRGRRYYWGQGTQVTVSS | high polyreactivity |
| QVQLVESGGGLVQAGGSLRLSCAASGSIFTYYTMGWYRPAPGKERELVAAISNRGGSTYYADSVKGRFTISRDNSKITVYLQMNSLKPEDTAVYYCNKDVGVAVEMAYWGQGTQVTVSS | high polyreactivity |
| QVQLVESGGGLVQAGGSLRLSCAASGSIFTYYTMGWYRQAPGKERELVAAITVSGGRTFYADSVKGRFTISRDNAKNTVYLQMNSLKPEDTAVYYCAVKQVTLSPQYDYWGQGTQVTVSS | low polyreactivity |
| QVQLVESGGGLVQAGGSLRLSCAASGSIFVANPMGWYRQATGKERELVAVISSGGGSTSYADSVKGRFTISRDNAKNSVYLQMNSLKPEDTAVYYCNRRRYDAGSTMGYWGQGTQVTVSS | low polyreactivity |
| QVQLVESGGGLVQAGGSLRLSCAASGSIFVAYTMGWYRQAPGKERELVAAISRGGSTNYADSVKGRFTISRDNAKNTVDLQMNSLKPEDTAVYYCAAKVWDGQLLYYWGQGTQVTVSS | low polyreactivity |
| QVQLVESGGGLVQAGGSLRLSCAASGSIFVDNAMGWYRQAPGIERELVAVITLRSGSTNYADSVKGRFTISRDNAKNTVYLQMNSLKPEDTAVYYCAADDTYHDYQRDTDDDYWGQGTQVTVSS | low polyreactivity |
| QVQLVESGGGLVQAGGSLRLSCAASGSIFVDNAMGWYRQAPGKDRELVAVISWIGSSTYYADSVKGRFTISRDNAKNTDYFQMNSLKPEDTAVYYCAAAPSRTLLRQSKYYYWGQGTQVTVSS | low polyreactivity |
| QVQLVESGGGLVQAGGSLRLSCAASGSIFVDYAMGWSRPAPGKERELVVAISLSGGSTYYADSVKGRFTISRDNAKNTVYLQMNSLKPEDTAVYYCNAELIKGTYRWYEGGSQYGYWGHGTQVTVSS | low polyreactivity |
| QVQLVESGGGLVQAGGSLRLSCAASGSIFVDYAMGWYRPAPGNERELVADITSDGGSTDYADSVKGRFTISRDYAKNTVYLQMHSLNPEDTAVYDCAALKTQVLGVVEYGYDYWGQGTQVTVSS | high polyreactivity |
| QVQLVESGGGLVQAGGSLRLSCAASGSIFVDYAMGWYRQAPGKERELVAAITWRGDTTYYADSVKGRFTISRDNAKNTFYLQMNSLKPEDTAVYYCAAADPVGGEYWGQGTQVTVSS | low polyreactivity |

— the nanobody polyreactivity screen of Harvey et al. (2022)
